T1: RsbW1 (MSMEG_1803), purified from E. coli (pT7-7rsbW1) (M. smegmatis, UniProt A0QTD7 1-138)
T1 construct: Anti-sigma factor RsbW1 of Mycobacterium smegmatis, locus MSMEG_1803, 138 amino acids; also called purified RsbW1; source: E. coli BL21 (DE3) with pT7-7rsbW1, purified (Ni-Sepharose)
T1 sequence (looked up): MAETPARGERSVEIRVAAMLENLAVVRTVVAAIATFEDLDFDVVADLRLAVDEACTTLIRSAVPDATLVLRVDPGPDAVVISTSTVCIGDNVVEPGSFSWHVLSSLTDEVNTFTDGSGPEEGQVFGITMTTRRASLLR


Columns and labels:
[1] = target: RsbW1 (MSMEG_1803), purified from E. coli (pT7-7rsbW1) (M. smegmatis) (UniProt A0QTD7); assay: native gel or EMSA; non-denaturing PAGE, CBB stain; 160 pmol RsbW1 mixed with increasing amounts of WT, S63A or S63E RsfB in binding buffer [40 mM Tris-HCl (pH 8.0), 0.01 mM EDTA, 10 mM MgCl2, 20% (v/v) glycerol], 30 min at 25°C
[2] = target: T1, RsbW1 (MSMEG_1803), purified from E. …; assay: as above; details: both partners purified

Row | Molecule | stoichiometry N [1] | stoichiometry N [2]
1 | C-terminally His6-tagged S63A RsfB purified from E. coli (natural protein) | 1 | 
2 | C-terminally His6-tagged WT RsfB (MSMEG_6127) purified from E. coli (natural protein, M. smegmatis, UniProt A0R5B0 1-119, looked up, Anti-SigF antagonist RsfB of Mycobacterium smegmatis, locus MSMEG_6127; unphosphorylated when made in E. coli; also called RsfB-His6; source: E. coli BL21 (DE3) with pT7-7rsfB, purified (Ni-Sepharose twice, PD-10 desalting)) MTSQDPANCTVEERRVGDITVVAVTGTVDMLTAPKLEDAIGSAAKSEPSAVVVDLSAVDFLASAGMGVLVAAHGELAPAVRLVVVADGPATSRPLKLVGIADVVDLFATLDEALSSLKT |  | 1

— PMC7693655, “The Partner Switching System of the SigF Sigma Factor in Mycobacterium smegmatis and Induction of the SigF Regulon Under Respiration-Inhibitory Conditions” (Frontiers in Microbiology, 2020)
